The test has as its system Human lung squamous carcinoma cells NCI-H2170. As to the kind of experiment: In vivo anti-tumor experiment (5), NCI-H2170 xenograft. Also noted: species or system female nude mice. The conditions noted are these: 5 mg/kg i.v. single dose. Here is the method:
Human lung squamous carcinoma cells NCI-H2170 (ATCC) were suspended in physiological saline. 4×10^7 cells were subcutaneously transplanted into the right flank of female nude mice, which were randomized into groups on day 6. Taking the grouping day as day 0, Antibody Conjugate 13, DS-1062a (the positive control drug) and the hIgG-A-11 conjugate as a negative control group were administered intravenously to the tail at a dose of 5 mg/kg respectively on day 0.

B1: DS-1062a (conjugate, chains of the INN, looked up)
VH: QVQLVQSGAEVKKPGASVKVSCKASGYTFTTAGMQWVRQAPGQGLEWMGWINTHSGVPKYAEDFKGRVTISADTSTSTAYLQLSSLKSEDTAVYYCARSGFGSSYWYFDVWGQGTLVTVSS
VL: DIQMTQSPSSLSASVGDRVTITCKASQDVSTAVAWYQQKPGKAPKLLIYSASYRYTGVPSRFSGSGSGTDFTLTISSLQPEDFAVYYCQQHYITPLTFGQGTKLEIK
modifications: deruxtecan payload
Regarding B1, the anti-tumor activity entry was “showed anti-tumor activity”.

The record behind these values is patent US20240245795A1, “PREPARATION METHOD AND APPLICATION OF ANTIBODY DRUG CONJUGATE” (priority 2021, published 2024).
